Data taken from article PMC8930772, “Seipin forms a flexible cage at lipid droplet formation sites” (Nature Structural & Molecular Biology, 2022).

Columns and labels:
[1] = molecular target: the molecule itself; assay: negative-stain EM; WT lumenal domain oligomers from the SEC, 2D class averages
[2] = molecular target: the molecule itself; assay: cryo-EM structure; purified Sei1-Ldb16 complex reconstituted in amphipol PmalC8, about 3.5 mg/ml; negative stain and cryo-EM; C10 then C5 symmetry

B1: seipin lumenal domain WT(47-235) with C-terminal 6xHis (domain or fragment, S. cerevisiae, UniProt Q06058 47-235, looked up)
chain: ADSSNVVPLNTFNILNGVQFGTKFFQSIKSIPVGTDLPQTIDNGLSQLIPMRDNMEYKLDLNLQLYCQSKTDHLNLDNLLIDVYRGPGPLLGAPGGSNSKDEKIFHTSRPIVCLALTDSMSPQEIEQLGPSRLDVYDEEWLNTIRIEDKISLESSYETISVFLKTEIAQRNLIIHPESGIKFRMNFEQG
notes: seipin Sei1, S. cerevisiae, lumenal domain lacking the TM segments, residues 47-235; also called WT lumenal domain; source: E. coli SHuffle T7 Express, purified (Ni-NTA), isolated in the absence of detergent; copies: 10
[1]
  stoichiometry N: 10

B2: yeast seipin Sei1 with C-terminal 3xFLAG-TEV-2xProteinA tag, purified from strain HAY60 (natural protein, S. cerevisiae, UniProt Q06058 1-285, looked up)
chain: MKINVSRPLQFLQWSSYIVVAFLIQLLIILPLSILIYHDFYLRLLPADSSNVVPLNTFNILNGVQFGTKFFQSIKSIPVGTDLPQTIDNGLSQLIPMRDNMEYKLDLNLQLYCQSKTDHLNLDNLLIDVYRGPGPLLGAPGGSNSKDEKIFHTSRPIVCLALTDSMSPQEIEQLGPSRLDVYDEEWLNTIRIEDKISLESSYETISVFLKTEIAQRNLIIHPESGIKFRMNFEQGLRNLMLRKRFLSYIIGISIFHCIICVLFFITGCTAFIFVRKGQEKSKKHS
notes: seipin Sei1 (Fld1), S. cerevisiae; tagged at the endogenous locus; The 2xProteinA part held the protein on IgG Sepharose and was cut off with TEV protease before SEC and cryo-EM; The deposited model holds residues 17-264 without 134-147; also called Fld1; source: S. cerevisiae strain HAY60, overproduced from the GAL1 promoter at the endogenous locus; purified (IgG Sepharose, TEV cleavage, …)
[2]
  stoichiometry N: 10
